Source: patent publication US20210206877A1 (Genentech, published 2021)

B1: antibody 6266 (antibody, V domains shown)
VH: EVQLVQSGAEVKKPGSSVKVSCKASGGTLSGYGVSWVRQAPGQGLEWMGNIIPGFGTANYAQKFQGRVTITADESTSTAYMELSSLRSEDTAVYYCARSGGTKYGMLDVWGQGTMVTVSS
VL: EIVMTQSPATLSVSPGERATLSCRASQSVSSNLAWYQQKPGQAPRLLIYGASTRATGIPARFSGSGSGTEFTLTISSLQSEDFAVYYCQQLILWPPRTFGGGTKVEIK
B2: 6309 (antibody, V domains shown)
VH: QLQLQESGPGLVKPSETLSLTCTVSGGSISWSSYYWSWIRQPPGKGLEWIGSIYRSGRTYYNPSLKSRVTISVDTSKNQFSLKLSSVTAADTAVYYCARVGHGINYFDLWGRGTLVTVSS
VL: EIVLTQSPATLSLSPGERATLSCRASQSVSSYLAWYQQKPGQAPRLLIYDASNRATGIPARFSGSGSGTDFTLTISSLEPEDFAVYYCQQSITWPPRTFGGGTKVEIK
B3: 6315 (antibody, V domains shown)
VH: QLQLQESGPGLVKPSETLSLTCTVSGGSISRGSYYWGWIRQPPGKGLEWIGMIYYSGSTWYNPSLKSRVTISVDTSKNQFSLKLSSVTAADTAVYYCARVGHGVSYFDLWGRGTLVTVSS
VL: EIVLTQSPATLSLSPGERATLSCRASQSVSSYLAWYQQKPGQAPRLLIYDASKRATGIPARFSGSGSGTDFTLTISSLEPEDFAVYYCQQSLVWPPRTFGGGAKVEIK
B4: 6313 (antibody, V domains shown)
VH: QLQLQESGPGLVKPSETLSLTCTVSGGSISRGSYYWGWIRQPPGKGLEWIGMIYYSGSTWYNPSLKSRVTISVDTSKNQFSLKLSSVTAADTAVYYCARVGHGVSYFDLWGRGTLVTVSS
VL: EIVLTQSPATLSLSPGERATLSCRASQSVSSYLAWYQQKPGQAPRLLIYDASNRATGIPARFSGSGSGTDFTLTISSLEPEDFAVYYCQQAYVWPPRTFGGGTKVEIK
B5: 6307 (antibody, V domains shown)
VH: QLQLQESGPGLVKPSETLSLTCTVSGGSISWSSYYWSWIRQPPGKGLEWIGSIYRSGRTYYNPSLKGRVTISVDTSKNQFSLKLSSVTAADTAVYYCARVGHGINYFDLWGRGTLVTVSS
VL: EIVLTQSPATLSLSPGERATLSCRASQSVSSYLAWYQQKPGQAPRLLIYDASNRATGIPARFSGSGSGTDFTLTISSLEPEDFAVYYCQQSIVWPPRTFGGGTKVEIK
B6: 6308 (antibody, V domains shown)
VH: QLQLQESGPGLVKPSETLSLTCTVSGGSISWSSYYWSWIRQPPGKGLEWIGSIYRSGRTYYNPSLKSRVTISVDTSKNQFSLKLSSVTAADTAVYYCARVGHGINYFDLWGRGTLVTVSS
VL: EIVLTQSPATLSLSPGERATLSCRASQSVSSYLAWYQQKPGQAPRLLIYDASKRATGIPARFSGSGSGTDFTLTISSLEPEDFAVYYCQQSLVWPPRTFGGGTKVEIK
B7: 6305 (antibody, V domains shown)
VH: QVQLVQSGAEVKKPGSSVKVSCKASGGTLSGYAISWVRQAPGQGLEWMGNIIPGFGTANYAQKSQGRVTITADESTSTAYMELSSLRSEDTAVYYCARSGGTRYGMLDVWGQGTMVTVSS
VL: EIVLTQSPATLSVSPGERATLSCRASQSVGSNLAWYQQKPGQAPRLLIYGASTRATGIPARFSGSGSGTEFTLTISSLQSEDFAVYYCQQSFVWPPRTFGGGTKVEIK
B8: 6300 (antibody, V domains shown)
VH: QVQLVQSGAEVKKPGSSVKVSCKASGGTLSGYAISWVRQAPGQGLEWMGNIIPGFGTANYAQKSQGRVTITADESTSTAYMELSSLRSEDTAVYYCARSGGTRYGMLDVWGQGTMVTVSS
VL: EIVLTQSPATLSVSPGERATLSCRASQSVGSNLAWYQQKPGQAPRLLIYGASTRATGIPARFSGSGSGTEFTLTISSLQSEDFAVYYCQQSFLWPPRTFGGGTKVEIK
B9: 6303 (antibody, V domains shown)
VH: QVQLVQSGAEVKKPGSSVKVSCKASGGTLSGYAISWVRQAPGQGLEWMGNIIPGFGTANYAQKSQGRVTITADESTSTAYMELSSLRSEDTAVYYCARSGGTRYGMLDVWGQGTMVTVSS
VL: EIVMTQSPATLSVSPGERATLSCRASQSVSSNLAWYQQKPGQAPRLLIFGASTRATGIPARFSGSGSGTEFTLTISSLQSEDFAVYYCQQLLTWPPRTFGGGTKVEIK
B10: 6311 (antibody, V domains shown)
VH: QLQLQESGPGLVKPSETLSLTCTVSGGSISWSSYYWSWIRQPPGKGLEWIGSIYRSGRTYYNPSLKSRVTISVDTSKNQFSLKLSSVTAADTAVYYCARVGHGINYFDLWGRGTLVTVSS
VL: EIVLTQSPATLSLSPGERATLSCRASQSVSSYLAWYQQKPGQAPRLLIYDASNRATGIPARFSGSGSGTDFTLTISSLEPEDFAVYYCQQSLTWPPRTFGGGTKVEIK
B11: 6310 (antibody, V domains shown)
VH: QLQLQESGPGLVKPSETLSLTCTVSGGSISWSSYYWSWIRQPPGKGLEWIGSIYRSGRTYYNPSLKSRVTISVDTSKNQFSLKLSSVTAADTAVYYCARVGHGINYFDLWGRGTLVTVSS
VL: EIVLTQSPATLSLSPGERATLSCRASQSVSSYLAWYQQKPGQAPRLLIYDASNRATGIPARFSGSGSGTDFTLTISSLEPEDFAVYYCQQSVTWPPRTFGGGTKVEIK
B12: 6314 (antibody, V domains shown)
VH: QLQLQESGPGLVKPSETLSLTCTVSGGSISRGSYYWGWIRQPPGKGLEWIGMIYYSGSTWYNPSLKSRVTISVDTSKNQFSLKLSSVTAADTAVYYCARVGHGVSYFDLWGRGTLVTVSS
VL: EIVLTQSPATLSLSPGERATLSCRASQSVSSYLAWYQQKPGQAPRLLIYDASNRATGIPARFSGSGSGTDFTLTISSLEPEDFAVYYCQQSIVWPPRTFGGGTKVEIK

Molecular target: T1, BACE1 endogenous to primary cortical neurons from E16.5 CD1 mice (mouse, UniProt P56818 46-501)
T1 sequence (P56818 46-501): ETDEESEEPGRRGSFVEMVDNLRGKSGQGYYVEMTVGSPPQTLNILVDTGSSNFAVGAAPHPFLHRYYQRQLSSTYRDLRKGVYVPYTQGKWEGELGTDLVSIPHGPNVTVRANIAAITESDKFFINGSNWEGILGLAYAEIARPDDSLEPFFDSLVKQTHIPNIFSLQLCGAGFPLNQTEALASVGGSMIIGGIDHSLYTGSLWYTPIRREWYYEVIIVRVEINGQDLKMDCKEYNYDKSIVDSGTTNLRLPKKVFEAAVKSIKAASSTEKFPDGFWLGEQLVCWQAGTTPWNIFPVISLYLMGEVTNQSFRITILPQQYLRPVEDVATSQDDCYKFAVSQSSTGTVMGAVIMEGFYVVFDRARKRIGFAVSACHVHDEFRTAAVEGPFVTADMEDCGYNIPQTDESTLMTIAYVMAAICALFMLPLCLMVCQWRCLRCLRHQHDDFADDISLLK
Assay: cell-based or functional assay

B1 was tested, and the “IC50, inhibition of Aβx-40 production in primary mouse cortical neuron cultures (sandwich ELISA of supernatants)” value was 1.7 nM.

Molecular target: T1, BACE1 endogenous to primary cortical …
Assay: cell-based or functional assay
Remark: another data set of the same source

In order of rising “max % inhibition, Abeta x-40 in mouse cortical neurons” value:
1. B2  60%
2. B6  60%
3. B10  63%
4. B4  67%
5. B7  67%
6. B5  68%
7. B8  71%
8. B11  71%
9. B12  71%
10. B3  73%
11. B9  76%

Molecular target: T1, BACE1 endogenous to primary cortical …
Assay: cell-based or functional assay
Remark: another data set of the same source

B1 was tested, and the “max % inhibition, Abeta x-40 in mouse cortical neurons” value was 87%.
